# Data: article PMC6936856
# B1: DH501 IgG1 (antibody, V domains shown)
# VH: QVTLKEFGPALVKPTQPLTLTCSFSGFSLRSSDTAVVWIRQPPGKALEWLAAIYWDDVEHINPSLKSRLSISKDSPNSLVVLTMANMDPVDTATYYCGRVRFVSGGYYTDRIDSWGPGLLVTVSS
# VL: QSVLTQPPSVSGAPGQRVTISCAGTKSNIGDCSVSWYQQLPGATPRLLIYQNNNRPSGVSDRFSGSKSGTSASLAITGLQTEDEADYFCLSYDTSFSGWRFGGGTRLTVL
# B2: DH501 H/UCA L chimeric antibody (antibody, V domains shown)
# VH: QVTLKEFGPALVKPTQPLTLTCSFSGFSLRSSDTAVVWIRQPPGKALEWLAAIYWDDVEHINPSLKSRLSISKDSPNSLVVLTMANMDPVDTATYYCGRVRFVSGGYYTDRIDSWGPGLLVTVSS
# VL: QSVLTQPPSVSGAPGQRVTISCTGSSSNIGGYYVSWYQQLPGTTPKLLIYQDNKRPSGVSDRFSGSKSGTSASLTITGLQTEDEADYYCLSYDTSFSGWRFGGGTRLTVL
# B3: DH501 with HFWR4 somatic mutations reverted to the UCA sequence (antibody, V domains shown)
# VH: QVTLKEFGPALVKPTQPLTLTCSFSGFSLRSSDTAVVWIRQPPGKALEWLAAIYWDDVEHINPSLKSRLSISKDSPNSLVVLTMANMDPVDTATYYCGRVRFVSGGYYTDRIDSWGQGVLVTVSS
# VL: QSVLTQPPSVSGAPGQRVTISCAGTKSNIGDCSVSWYQQLPGATPRLLIYQNNNRPSGVSDRFSGSKSGTSASLAITGLQTEDEADYFCLSYDTSFSGWRFGGGTRLTVL
# Tests used:
# [1] = biological target: JR-FL Env gp160 on pseudovirus (HIV-1 (JR-FL)) (UniProt Q75760)
# [2] = biological target: JR-FL Env gp160 on pseudovirus (HIV-1 (JR-FL)) (UniProt Q75760); remark: listed apart in the source
Binder,"IC50 of neutralisation of kifunensine-treated (Man9GlcNAc2-enriched) JR-FL pseudovirus, TZM-bl cells [1] [µg/mL]","IC50 of neutralisation of kifunensine-treated JR-FL, TZM-bl cells [2] [µg/mL]"
B1,0.09,–
B2,0.06,–
B3,–,4.34
